Data: patent US20210292396A1 (INTERNATIONAL AIDS VACCINE INITIATIVE, published 2021)

Experiments:
[1] = molecular target: gp120 (isolate not stated; FIG. 19) (HIV)
[2] = molecular target: HIV Env of isolate 89-F1_2_25 (HIV); assay: cell-based or functional assay
[3] = molecular target: HIV Env of isolate Ce704809221_1B3 (HIV); assay: cell-based or functional assay
HIV Env of isolate CNE19 = HIV Env of isolate CNE19 (HIV); assay: cell-based or functional assay
[4] = molecular target: HIV Env of isolate X1193_c1 (HIV); assay: cell-based or functional assay
HIV Env of isolate CNE5 = HIV Env of isolate CNE5 (HIV); assay: cell-based or functional assay

B1: PGT-121 (antibody, V domains shown)
VH: QMQLQESGPGLVKPSETLSLTCSVSGASISDSYWSWIRRSPGKGLEWIGYVHKSGDTNYSPSLKSRVNLSLDTSKNQVSLSLVAATAADSGKYYCARTLHGRRIYGIVAFNEWFTYFYMDVWGNGTQVTVSS
VL: SDISVAPGETARISCGEKSLGSRAVQWYQHRAGQAPSLIIYNNQDRPSGIPERFSGSPDSPFGTTATLTITSVEAGDEADYYCHIWDSRVPTKWVFGGGTTLTVLG
- EC50 (read off the curve) [1]: ~0.6 µg/mL
- neutralization IC50 [2]: > 50 µg/mL
- neutralization IC50 [3]: 0.025 µg/mL
- neutralization IC50 (HIV Env of isolate CNE19): 0.008 µg/mL

B2: ePGT121.15.H1.L1 (antibody, V domains shown)
VH: QMQLQESGPGLVKPGETLSLTCSVSGASISSSYWSWLRETPGKGLEWIGYTHHSGDTNYAPSLKSRVHLGLHPSKNQVSLSLTSVTAADTAVYYCARTLHGRRIYGVVAFNEWFTYFYWEVWGNGTQVTVSS
VL: SDISVAPGETVRISCGGESIGSRAVQWYQHRAGQAPKLIIYNNQDRPPGIPERFSGSPDIDFGTTATLTITNVEAGDEATYYCHIWDSRRPTNWVFGGGTTLTVL
- neutralization IC50 [4]: 0.0001 µg/mL
- neutralization IC50 [2]: > 50 µg/mL

B3: ePGT121.15.H6.L1 (antibody, V domains shown)
VH: QMQLQESGPGLVKPGETLSLTCSVSGASISSSYWSWLRETPGKGLEWIGYTHHSGDTNYAPSLKSRVHLGLHPSKNQVSLSLTSVTAADTAVYYCARTLHGRRIYGVVAFNEFFTYFYWEVWGKGTQVTVSS
VL: SDISVAPGETVRISCGGESIGSRAVQWYQHRAGQAPKLIIYNNQDRPPGIPERFSGSPDIDFGTTATLTITNVEAGDEATYYCHIWDSRRPTNWVFGGGTTLTVL
- neutralization (Table 6 value) (HIV Env of isolate CNE5): 2.72
